From patent publication US20180355064A1 (GLENMARK PHARMACEUTICALS S A, published 2018)

Target: T1, human CD3 epsilon on HPB-ALL cells (human, UniProt P07766 23-207)
T1 construct: whole, on cells; also called human CD3 epsilon positive T cell tumour line
Assay: FACS, median fluorescence intensity on HPB-ALL cells
Experimental: HPB-ALL cells (DSMZ, Braunschweig, Germany, Cat. No: ACC483) were used as CD3 positive cell line for FACS staining. […] After washing, cells were incubated with a 1/200 dilution of anti-Human Fc-PE (EBioscience, Vienna, Austria) for 45 min on ice. Cells were then washed again and resuspended in 200 ul FACS buffer.

binding result: no binding
B1: humanized OKT3 prototype antibody VH/VL (antibody, human IgG1, kappa, V domains shown)
VH: EVQLVESGGGLVQPGGSLRLSCAASGYTFTRYTIHWVRQAPGKGLEWVAYINPSRGYTRYADSVKGRFTISADTSKNTAYLQMNSLRAEDTAVYYCARYYDDHYCLDYWGQGTLVTVSS
VL: DIQMTQSPSSLSASVGDRVTITCRASSSVSYVAWYQQKPGKAPKLLIYDTSKLYSGVPSRFSGSRSGTDFTLTISSLQPEDFATYYCQQWSSNPPTFGQGTKVEIKR
